Measured values reported in article PMC6546417 (Science (New York, N.Y.), 2009).
Residue numbers refer to the chain shown, from its start. Values joined by “and” are separate entries in the source; they are usually repeats but may differ in a detail not shown here. Equal values may be shown once.

T1: Dnm1K41A (yeast, UniProt P54861 1-757, K41A)
T1 sequence (looked up): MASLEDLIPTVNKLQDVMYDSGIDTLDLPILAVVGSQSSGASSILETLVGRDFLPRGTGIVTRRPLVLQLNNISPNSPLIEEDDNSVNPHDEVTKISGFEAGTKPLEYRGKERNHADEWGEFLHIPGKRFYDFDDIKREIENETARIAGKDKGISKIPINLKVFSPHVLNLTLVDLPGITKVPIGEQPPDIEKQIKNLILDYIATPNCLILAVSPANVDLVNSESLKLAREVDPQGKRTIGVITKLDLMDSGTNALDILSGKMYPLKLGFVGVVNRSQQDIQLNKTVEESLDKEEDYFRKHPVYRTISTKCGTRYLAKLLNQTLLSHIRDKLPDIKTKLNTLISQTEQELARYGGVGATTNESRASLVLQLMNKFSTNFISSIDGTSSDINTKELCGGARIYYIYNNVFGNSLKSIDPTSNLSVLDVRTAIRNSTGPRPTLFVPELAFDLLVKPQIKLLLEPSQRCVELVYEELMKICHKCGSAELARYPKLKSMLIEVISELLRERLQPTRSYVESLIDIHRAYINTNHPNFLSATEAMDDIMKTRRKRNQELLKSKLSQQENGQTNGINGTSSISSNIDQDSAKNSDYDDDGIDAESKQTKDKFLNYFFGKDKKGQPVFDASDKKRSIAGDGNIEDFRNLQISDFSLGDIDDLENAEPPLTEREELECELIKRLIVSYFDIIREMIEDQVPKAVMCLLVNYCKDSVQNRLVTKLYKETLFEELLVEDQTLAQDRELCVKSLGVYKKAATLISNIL

B1: Dnm1 (enzyme, yeast, UniProt P54861 1-757, looked up)
chain: T1 sequence (looked up) with A41K
B2: Mdv1 (natural protein, yeast, UniProt P47025 1-714, looked up)
chain: MSVNDQITHIGKTLSTTASAFLNYQKSNSNTQDVLTNNGPYKNLLSNTVNNASSTSYFYKRTEHGRFVKNASNTFEDIYSKTRRGDVFRNKFTDNKTCFRMLTYISDDLLNEIPTKEGLKSDADGKLLTEGGENENLRKNASKKETSLFQGFKSYLPIAELAIENTERLNYDTNGTSGTVGAKDVMSKTNERDEIHTELPNFQDSFLIPPGVETKKISSSYSPSALKSFSQTLVNSLEFLNIQKNSTLSEIRDIEVEVENLRQKKEKLLGKIANIEQNQLLLEDNLKQIDDRLDFLEEYGLEVIEANSDENAEDDGMSERKALKNDAIRNEGVTTESISSEASNLPPRRRQQLRDDNSLNRLGAFYSKSKKRHRKSFPTFQQLYEPGTKIGSIMSTHDDFLTCLDFDAPFGTLCTAGYLDHTVKIWDLSKQNKIGELAGHLATINCMQINRDYGTLVTGGRDAALKLWNLNLAQQLYQETQNLTSPTNHIDSPCVHTFEAHTDEVTALSLDPSFLVSGSQDRTIRQWDLRSGKCLQTIDLSFANVLTTSTNVDLSKSTLLTQRNERPSIGALQSFDAALATGTKDGVVRLWDLRSGKVIRTLKGHTDAITSLKFDSACLVTGSYDRTVRIWDLRTGLLNKFHAYSAPVLSLDLFQENAAVVVADEPSVQIYDSEKDESWSCVEQGNETSVSTVKYKENYMVEGRENGDVNIWAV

Legend:
[1] = biological target: the molecule itself; assay: negative-stain electron microscopy
Dnm1 = biological target: B1; assay: cell-based or functional assay
cross-linking = biological target: the molecule itself; assay: cross-linking
[2] = biological target: the molecule itself; assay: SEC + other: sucrose gradient sedimentation
Dnm1K41A = biological target: T1, Dnm1K41A; assay: liposome flotation

| Binder | binding result [1] | amount of GTP cross-linked to Dnm1 by ultraviolet light on addition of Mdv1 (Dnm1) [fold] | stoichiometry N (cross-linking) | stoichiometry N [2] | binding result (Dnm1K41A) |
| --- | --- | --- | --- | --- | --- |
| B1 | binds | – | – | – | – |
| B2 | – | 1.4 | 4 and 6 | 2 | binds |
